Experimental data taken from patent US20040146507A1.

Biological target: T1, rhesus CD11a (rhesus) (UniProt H9Z8N3)
T1 sequence: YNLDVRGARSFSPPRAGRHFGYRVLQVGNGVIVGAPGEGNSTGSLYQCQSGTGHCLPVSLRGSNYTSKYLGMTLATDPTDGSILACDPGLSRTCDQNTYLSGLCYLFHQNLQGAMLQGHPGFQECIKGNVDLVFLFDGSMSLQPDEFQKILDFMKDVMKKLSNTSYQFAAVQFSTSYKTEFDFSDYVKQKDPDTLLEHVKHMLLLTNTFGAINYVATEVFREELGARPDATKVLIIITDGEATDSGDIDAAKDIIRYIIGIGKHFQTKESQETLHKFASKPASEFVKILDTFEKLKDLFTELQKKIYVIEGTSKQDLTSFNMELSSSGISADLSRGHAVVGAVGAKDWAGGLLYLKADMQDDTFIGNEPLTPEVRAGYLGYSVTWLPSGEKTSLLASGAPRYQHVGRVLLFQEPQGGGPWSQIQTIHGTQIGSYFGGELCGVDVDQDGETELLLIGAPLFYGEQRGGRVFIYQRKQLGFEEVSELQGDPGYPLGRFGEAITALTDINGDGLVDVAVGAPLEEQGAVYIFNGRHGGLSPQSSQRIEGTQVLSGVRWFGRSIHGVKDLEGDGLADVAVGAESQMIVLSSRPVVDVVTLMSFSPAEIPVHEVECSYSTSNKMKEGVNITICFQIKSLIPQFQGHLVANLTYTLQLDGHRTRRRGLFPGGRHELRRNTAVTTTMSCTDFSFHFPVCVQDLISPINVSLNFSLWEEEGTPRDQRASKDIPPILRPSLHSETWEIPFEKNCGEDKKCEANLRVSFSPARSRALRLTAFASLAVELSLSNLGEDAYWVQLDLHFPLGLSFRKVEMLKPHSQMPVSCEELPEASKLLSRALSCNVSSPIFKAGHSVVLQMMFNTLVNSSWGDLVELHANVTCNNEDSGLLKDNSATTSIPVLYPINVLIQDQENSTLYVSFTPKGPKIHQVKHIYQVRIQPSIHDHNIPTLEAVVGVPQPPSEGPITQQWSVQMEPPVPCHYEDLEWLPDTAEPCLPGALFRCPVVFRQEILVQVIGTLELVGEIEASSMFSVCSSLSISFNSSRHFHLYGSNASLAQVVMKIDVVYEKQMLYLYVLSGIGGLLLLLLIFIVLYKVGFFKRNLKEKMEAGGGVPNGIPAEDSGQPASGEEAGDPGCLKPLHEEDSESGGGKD
Experiment: rhesus PBL binding

B1: HuIgG1 mutant SerL52Ala (antibody, V domains shown)
VH: EVQLVESGGGLVQPGGSLRLSCAASGYSFTGHWMNWVRQAPGKGLEWVGMIHPSDSETRYNQKFKDRFTISVDKSKNTLYLQMNSLRAEDTAVYYCARGIYFYGTTYFDYWGQGTLVTVSS
VL: DIQMTQSPSSLSASVGDRVTITCRASKTISKYLAWYQQKPGKAPKLLIYSGATLQSGVPSRFSGSGSGTDFTLTISSLQPEDFATYYCQQHNEYPLTFGQGTKVEIKR
Var.EC50/HuIgG1 EC50: 13.3
